Measured values as given in article PMC12102759 (2025).

B1: SARS‐CoV‐2 NSP3 UBl1 domain (819–925), tag cleaved, for FP (domain or fragment)
chain: APTKVTFGDDTVIEVQGYKSVNITFELDERIDKVLNEKCSAYTVELGTEVNEFACVVADAVIKTLQPVSELLTPLGIDLDEWSMATYYLFDESGEFKLASHMYCSFY
B2: SARS‐CoV‐2 NSP3 SUD‐M domain (1356–1493), tag cleaved, for FP (domain or fragment)
chain: LPSIISNEKQEILGTVSWNLREMLAHAEETRKLMPVCVETKAIVSTIQRKYKGIKIQEGVVDYGARFYFYTSKTTVASLINTLNDLNETLVTMPLGYVTHGLNLEEAARYMRSLKVPATVSVSSPDAVTAYNGYLTSS

Key:
NCOA2 wild-type peptide = experiment: FP
PRDM14 wild-type peptide = experiment: FP

| Binder | Kd (NCOA2 wild-type peptide) [µM] | Kd (PRDM14 wild-type peptide) [µM] |
| --- | --- | --- |
| B1 | 39 | – |
| B2 | – | 74 |
